# Source: patent US8986682B2, “Method to increase the absorption of unsaturated fatty acids by human infants” (Swedish Orphan Biovitrum AB (publ), priority 2010, dated 2015)
# “And” between values parts separate entries of the source, which are not always exact repeats. Equal entries are not always repeated. Marks after values point to notes of the source that are not given here.
# System: preterm infants born before week 32 of gestational age
# Assay: Coefficient of fat absorption (CFA), fat balance of food and stool by gas chromatography, studies BVT.BSSL-020/-021
# Assay type: in vivo, human
# Parameters: Coefficient of Absorption of AA (C20:4 n-6), Minimum: concentration or dose not given beside the values
# Conditions: for CFA (overall), LS Mean Difference (rhBSSL − Placebo) / CFA (overall), Maximum / CFA (overall), Mean (SD) / CFA (overall), Median / CFA (overall), Minimum: last 72 h of 7-day treatment
# Description: Patients were randomized to infant formula/pasteurized breast milk supplemented with rhBSSL at a final concentration of 0.15 g/L, or to infant formula/pasteurized breast milk “supplemented” with sterile water for injection (as placebo) for the first 7 days. After a washout period of 2 days, the patient was “crossed over” to the other treatment regimen during a second 7-day treatment period. Collection of feces samples for CFA assessment were performed during the last 3 days (72 hours) of each treatment period.
# The collection of feces for the determination of CFA was performed over a period corresponding to the fat, i.e., formula or milk, ingestion during 72 hours toward the end of each treatment period. Diapers supplied to each site were used for feces collection. During the two treatment periods, a carmine red tracer dye was given as a marker together with a meal (approximately at noon) on Day 4 and Day 13, respectively, and collection of stool commenced with the appearance of the first carmine red marker in the stool. The stool containing the first marker was collected and the date and time of the first stool collected was recorded on the CRF. At 72 hours following administration of the first red marker, the second carmine marker was given, and stool collection continued until the second carmine marker appeared. The stool containing the second marker was not collected, but the date and time of the appearance of the second marker was recorded on the CRF. Diapers were weighed before placement and after removal and the difference in weight was recorded on the CRF. The times of each collection and the elapsed duration of the entire collection period was also recorded on the CRF. The use of ointments for the treatment of skin irritation was prohibited during the stool collection period. Diapers were to be changed frequently during the collection period to keep the skin dry. Patients with skin rash severity leading to discontinuation of the stool collection were to be withdrawn from the study. Specific collection methods were provided in a separate laboratory manual. If applicable, vomit from the stool collection periods of both treatment periods was weighed. A small cloth/linen was weighed and placed under the head of each infant. When the cloth/linen was soiled with vomit, it was removed and re-weighed. If an additional cloth was used to remove vomit from the infant, that cloth was also weighed before and after use. The weight of vomit (total weight minus the weight of the cloth/linen) was recorded on the CRF. All other feed losses, e.g., formula or milk left in bottle, were measured and the amount accounted for in the calculation of the volume of formula consumed at each feeding.
# Feces samples, the formula (study 020) and the milk aliquots (study 021) were analyzed by a central laboratory. Individual fatty acids, including the long-chain polyunsaturated fatty acids DHA and AA, were quantified in feces and feed by a gas chromatographic method following extraction by the Folch method. In both studies, the Omegawax 250 column (Supelco) was used for separation of the fatty acids. However, due to co-elution of DHA with nervonic acid (C24:1), which was only present in the breast milk, samples from patients of the per-protocol analysis set from study 021 were also analyzed using a SP-2380 column (Supelco) in order to quantify DHA for those samples from study 021. […] Total lipids were calculated as the sum of the individual fatty acids. (See Section 7.5.1). The same analytical principle was used to determine lipids in each of the batches of formula and aliquots of breast milk used in the study. […]
# [1] = BVT.BSSL-021 (pasteurized breast milk), PP
# [2] = BVT.BSSL-021 (pasteurized breast milk), PP, 72-hour collection period
# [3] = BVT.BSSL-021 Pasteurized milk, PP
# [4] = combined analysis, PP, post hoc
# [5] = combined data, PP, 72-hour collection, rhBSSL (N = 46)
molecule,measurement,setting,value
"rhBSSL: recombinant human bile-salt-stimulated lipase, SEQ ID. NO. 1, expressed from recombinant CHO cells; used in both clinical trials (protein, listed as Homo sapiens) AKLGAVYTEGGFVEGVNKKLGLLGDSVDIFKGIPFAAPTKALENPQPHPGWQGTLKAKNFKKRCLQATITQDSTYGDEDCLYLNIWVPQGRKQVSRDLPVMIWIYGGAFLMGSGHGANFLNNYLYDGEEIATRGNVIVVTFNYRVGPLGFLSTGDANLPGNYGLRDQHMAIAWVKRNIAAFGGDPNNITLFGESAGGASVSLQTLSPYNKGLIRRAISQSGVALSPWVIQKNPLFWAKKVAEKVGCPVGDAARMAQCLKVTDPRALTLAYKVPLAGLEYPMLHYVGFVPVIDGDFIPADPINLYANAADIDYIAGTNNMDGHIFASIDMPAINKGNKKVTEEDFYKLVSEFTITKGLRGAKTTFDVYTESWAQDPSQENKKKTVVDFETDVLFLVPTEIALAQHRANAKSAKTYAYLFSHPSRMPVYPKWVGADHADDIQYVFGKPFATPTGYRPQDRTVSKAMIAYWTNFAKTGDPNMGDSAVPTHWEPYTTENSGYLEITKKMGSSSMKRSLRTNFLRYWTLTYLALPTVTDQEATPVPPTGDSEATPVPPTGDSETAPVPPTGDSGAPPVPPTGDSGAPPVPPTGDSGAPPVPPTGDSGAPPVPPTGDSGAPPVPPTGDSGAPPVPPTGDSGAPPVPPTGDAGPPPVPPTGDSGAPPVPPTGDSGAPPVTPTGDSETAPVPPTGDSGAPPVPPTGDSEAAPVPPTDDSKEAQMPAVIRF","CFA for C20:3 n-6 (sum of C20:3 n-6 and C20:3 n-3), Difference (rhBSSL − Placebo)",[1],8.91* %
same,CFA for C20:4 n-6 (AA),[1],72.10%
same,"CFA for C20:4 n-6 (AA), Difference (rhBSSL − Placebo)",[1],10.82* %
same,CFA for C22:6 n-3 (DHA),[1],78.49%
same,"CFA for C22:6 n-3 (DHA), Difference (rhBSSL − Placebo)",[1],4.72* %
same,CFA for C24:1,[1],36.85%
same,"CFA for C24:1, Difference (rhBSSL − Placebo)",[1],7.68%
same,"Total Amount of Fat in Stool, Maximum",[2],13.3 g
same,"Total Amount of Fat in Stool, Mean (SD)",[2],6.16 g and 6.16 (3.550) g
same,"Total Amount of Fat in Stool, Median",[2],4.99 g
same,"Total Amount of Fat in Stool, Minimum",[2],0.9 g
same,"Coefficient of absorption of the sum of all LCPUFAs, LS mean",[3],70.2%
same,"Coefficient of absorption of the sum of all LCPUFAs, LS mean difference (rhBSSL-Placebo)",[3],8.02%
same,"Coefficient of absorption of the sum of all polyunsaturated fatty acids, LS mean",[3],70.7%
same,"Coefficient of absorption of the sum of all polyunsaturated fatty acids, LS mean difference (rhBSSL-Placebo)",[3],6.92%
same,"Coefficient of absorption of the sum of all saturated fatty acids, LS mean",[3],66.1%
same,"Coefficient of absorption of the sum of all saturated fatty acids, LS mean difference (rhBSSL-Placebo)",[3],4.36%
same,"Coefficient of absorption of the sum of all unsaturated fatty acids, LS mean",[3],70.6%
same,"Coefficient of absorption of the sum of all unsaturated fatty acids, LS mean difference (rhBSSL-Placebo)",[3],5.10%
same,CFA for C12:0,[4],88.86%
same,"CFA for C12:0, Difference (rhBSSL − Placebo)",[4],2.42%
same,CFA for C14:0 (myristic acid),[4],76.15%
same,"CFA for C14:0 (myristic acid), Difference (rhBSSL − Placebo)",[4],4.81%
same,CFA for C16:0,[4],55.49%
same,"CFA for C16:0, Difference (rhBSSL − Placebo)",[4],2.61%
same,CFA for C18:0,[4],44.28%
same,"CFA for C18:0, Difference (rhBSSL − Placebo)",[4],1.51%
same,CFA for C18:1,[4],73.66%
same,"CFA for C18:1, Difference (rhBSSL − Placebo)",[4],3.65%
same,CFA for C18:2 n-6 (linoleic acid),[4],77.49%
same,"CFA for C18:2 n-6 (linoleic acid), Difference (rhBSSL − Placebo)",[4],5.79%
same,CFA for C18:3 n-3 (alpha-linolenic acid),[4],76.31%
same,"CFA for C18:3 n-3 (alpha-linolenic acid), Difference (rhBSSL − Placebo)",[4],3.66%
same,"Total Amount of Fat in Stool, Maximum",[5],15.0 g
same,"Total Amount of Fat in Stool, Mean (SD)",[5],7.50 g and 7.50 (3.635) g
same,"Total Amount of Fat in Stool, Median",[5],7.05 g
same,"Total Amount of Fat in Stool, Minimum",[5],0.9 g
same,"Total Amount of Fat in Stool, Mean (SD)","combined data, PP, second column also headed rhBSSL (N = 46), placebo according to b324",8.36 (4.018) g
same,"Coefficient of Absorption of AA (C20:4 n-6), LS Mean","combined studies 020+021, FAS",77.60%
same,"Coefficient of Absorption of AA (C20:4 n-6), LS Mean Difference (rhBSSL − Placebo)","combined studies 020+021, FAS",8.70%
same,"Coefficient of Absorption of AA (C20:4 n-6), Maximum","combined studies 020+021, FAS",100.0%
same,"Coefficient of Absorption of AA (C20:4 n-6), Mean (SD)","combined studies 020+021, FAS",77.88 (17.628) %
same,"Coefficient of Absorption of AA (C20:4 n-6), Median","combined studies 020+021, FAS",81.28%
same,"Coefficient of Absorption of AA (C20:4 n-6), Minimum","combined studies 020+021, FAS",26.6%
same,"Coefficient of Absorption of DHA (C22:6 n-3), LS Mean","combined studies 020+021, FAS",77.91%
same,"Coefficient of Absorption of DHA (C22:6 n-3), LS Mean Difference (rhBSSL − Placebo)","combined studies 020+021, FAS",6.24%
same,"Coefficient of Absorption of DHA (C22:6 n-3), Maximum","combined studies 020+021, FAS",100.0%
same,"Coefficient of Absorption of DHA (C22:6 n-3), Mean (SD)","combined studies 020+021, FAS",77.97 (16.251) %
same,"Coefficient of Absorption of DHA (C22:6 n-3), Median","combined studies 020+021, FAS",81.22%
same,"Coefficient of Absorption of DHA (C22:6 n-3), Minimum","combined studies 020+021, FAS",26.8%
same,"CFA (overall), LS Mean Difference (rhBSSL − Placebo)","combined studies 020+021, FAS",3.70%
same,"CFA (overall), Maximum","combined studies 020+021, FAS",93.2%
same,"CFA (overall), Mean (SD)","combined studies 020+021, FAS",67.80 (16.663) %
same,"CFA (overall), Median","combined studies 020+021, FAS",71.09%
same,"CFA (overall), Minimum","combined studies 020+021, FAS",11.7%
same,"Coefficient of Absorption of AA (C20:4 n-6), LS Mean","combined studies 020+021, PP",77.36%
same,"Coefficient of Absorption of AA (C20:4 n-6), LS Mean Difference (rhBSSL − Placebo)","combined studies 020+021, PP",8.63%
same,"Coefficient of Absorption of AA (C20:4 n-6), Maximum","combined studies 020+021, PP",100.0%
same,"Coefficient of Absorption of AA (C20:4 n-6), Mean (SD)","combined studies 020+021, PP",78.01 (16.881) %
same,"Coefficient of Absorption of AA (C20:4 n-6), Median","combined studies 020+021, PP",81.01%
same,"Coefficient of Absorption of AA (C20:4 n-6), Minimum","combined studies 020+021, PP",26.6%
same,"Coefficient of Absorption of DHA (C22:6 n-3), LS Mean","combined studies 020+021, PP",79.83%
same,"Coefficient of Absorption of DHA (C22:6 n-3), LS Mean Difference (rhBSSL − Placebo)","combined studies 020+021, PP",5.80%
same,"Coefficient of Absorption of DHA (C22:6 n-3), Maximum","combined studies 020+021, PP",100.0%
same,"Coefficient of Absorption of DHA (C22:6 n-3), Mean (SD)","combined studies 020+021, PP",79.76 (14.075) %
same,"Coefficient of Absorption of DHA (C22:6 n-3), Median","combined studies 020+021, PP",82.90%
same,"Coefficient of Absorption of DHA (C22:6 n-3), Minimum","combined studies 020+021, PP",42.2%
same,"CFA (overall), LS Mean Difference (rhBSSL − Placebo)","combined studies 020+021, PP",3.56%
same,"CFA (overall), Maximum","combined studies 020+021, PP",93.2%
same,"CFA (overall), Mean (SD)","combined studies 020+021, PP",69.08% and 69.08 (14.683) %
same,"CFA (overall), Median","combined studies 020+021, PP",71.83%
same,"CFA (overall), Minimum","combined studies 020+021, PP",31.2%
same,Relative increase of overall CFA compared to the LS mean for placebo,"combined studies, PP",5.4%
same,Relative increase of overall CFA compared to the LS mean for placebo,"formula-fed infants (BVT.BSSL-020), PP",3.1%
